Data as given in the DeepSol protein solubility set.

assay: soluble on expression in E. coli; label from the status in PepcDB or PDB records

| Sequence | soluble on expression in E. coli |
| --- | --- |
| MITQVNQLDELQLKDLKTLRAECKKNDGSIPNLYIHILKQHRSLPTSFLYYQNGALIGFLSIYFFYDDAVEVAVLVSPQYRRQGIAKQLIKEALPLIKSQNYFNLIFSCPSRLNDNWLTSKGFTYLHSEYFMERDDLNPILDYIRPLSFRMATLEDIPILCGLDEVCFPDKNQDSVHRFQQILNEREYEIVIAMLNNHPIGKSHIRWQTKRATLSDIAILPKEQGKGFGSALIAHCINMILSEGKSRVDLDVETHNKKALNLYIQLGFHIQNACDYWSINVNQLAK | not soluble |
| SNASVFDLFSIGIGPSSSHTVGPMLAANAFLQLLEQKNLFDKTQRVKVELYGSLALTGKGHGTDKAILNGLENKAPETVDPASMIPRMHEILDSNLLNLAGKKEIPFHEATDFLFLQKELLPKHSNGMRFSAFDGNANLLIEQVYYSIGGGFITTEEDFDK | soluble |
| MSLENNKAKMNEKEEIIFNSIRKNPYISQQELADILDLSRPTVANLISGLIKKGRILGKAYILNEAKQIVCIGGANVDRKFYIKDKAQLATSNPVRSTQSAGGVARNVGENLGRLGKEVILLTACGTDSDWEAVKNASNTYMNLDYVTAFPSIATGSYTAVLENNGDLLVALADMDAYDHLTPDVLAKNEGLLSQASAIIADLNCPKETLEYLGSFAEINSIPLVLVPVSSPKMSHLPERLDHVTWLICNRDESETHLEMTIENDEDWRLAAQKWLDLGVKNVIVTNGSKGAVAANNAEGIIFEPAIVIENIVDVTGAGDAFCSAVIYAWLEGKSLQEILKAGSVNAARTLESEYTVRQNLSTSQLQKDLEEFKEGHHHHHH | soluble |
| MAHHHHHHMEYDDGEYGRESSVEALAQSQESEQVASAASGLPESSSSAGSAKPSFRILSTRQLAQWARVRHQMDVGCSGNTVWTVSSAKHGNGVLHLMRHHDLNNFWQSDGVLPHVIRIQLGQLTPVEAMAVYVNSAVDQSYSPRVIRVKAGTHNGDMTEVAKADIGAGQECGWVLITLREMAGDDGDDVEGGGPNDGGGGVAAGVRIQHQQQEVRPRQQDGGAPEGGAASSYSPPIPYSEVAAALGHGNHATPSSAGVQTSAAMPRIPRSTSNPADRWLWCTLIDIYICENQFNGRDCHLRGIRLMGPRYEELERVSNADATGTVTCARPLQGGEPLEGTADELQLR | not soluble |
| SDRRTRENPERTFDLVLKVKCHASENEDPEVLWKFPEDFGDQEVLQSVPKFCFPFDVERVSQNQVGQHFTFVLTDMESKQRFGFCRLTSGGRICLCILSYLPWFEVYYKLLNTLADYLAKELEEDLNETLKSLYNHPVPKANTPVNLSVNQELFIASEQVLKDDPSLIPHSCFITPDITGLPTIPESRNLTEYFVAVDVNNMLRLYASMLHERRIIITSSKLSTVSPSHLRL | soluble |
| MVDQATLDKLEAGFKKLQEASDCKSLLKKHLTKDVFDSIKNKKTGMGATLLDVIQSGVENLDSGVGIYAPDAESYRTFGPLFDPIIDDYHGGFKLTDKHPPKQWGDINTLVGLDPAGQFIISTRVRCGRSLQGYPFNPCLTAEQYKEMEEKVSSTLSSMEDELKGTYYPLTGMSKATQQQLIDDHFLFKEGDRFLQTANACRYWPTGRGIFHNDAKTFLVWVNEEDHLRIISMQKGGDLKTVYKRLVTAVDNIESKLPFSHDDRFGFLTFCPTNLGTTMRASVHIQLPKLAKDRKVLEDIASKFNLQVRGTRGEHTESEGGVYDISNKRRLGLTEYQAVREMQDGILEMIKMEKAAA | soluble |
| MSQSTSAGGSQAVAQNPGAKLGFSMRSASIASDSVPCESGLCEAPPGVLSGAGTVFCESTYKVKIDNETVWQVPTRLKFVKKVGSGAYGCVASFEDTSASASEQGTEDDPSRREQSGETRTSQTGSAEGDSGTNKKVAVKKIGDLFRDLIDAKRIYREIKILKELKHENIINLVEILDPLTPDFEDIYLVSDLMDTDLHRVIYSRQPLTPEHHQYFLYQLLLGLSFLHQADIIHRDLKPSNILVNLNCDIKICDFGLARGLNMNPAPPPNLLPPATHRAGPAAAQDVVCTYTPPDNLSGAGKWGDQKLAAAAGAGSIAATRLVRLAHQQGSSLIGAQHQVPAKTDDASDDMELTDYVVTRWYRPPEILISPFCYSKPVDLWSVGCIFAELLGRRALFAGKDHFDQLRRIVRVLGRPSTAEINKVANEGRGRHFNNPSKGTSNTKRKRSEAARRFIESLPNSDPYKLEDLFPDASKAALDLLSNLLTFDPAKRITVQEALRHEYFEGLHSVEDEPTVTTPVNWSFDNFVPTKR | soluble |
| MRRVTTLLVMMLTVLSACQASPKASPTKPGNAMSNNHPQNPYYSRTDTTRLDLPNEVWKKVLSPELYAVARLAETERAFTGKYWNYEGLGTYYCAACGNTLFRSDAKFASTCGWPSFFETVRPGSVAYREDTSFGMVRTEVLCGRCGAHLGHVFDDGPPPTGKRFCMNSICLDFEPDQPETAKPQ | soluble |
| MSDVQSSLTGTWYNELNSKMELTANKDGTLTGKYLSKVGDVYVPYPLSGRYNLQPPAGQGVALGWAVSWENSKIHSATTWSGQFFSESSPVILTQWLLSSSTARGDVWESTLVGNDSFTKTAPTEQQIAHAQLHCRAPRLK | soluble |
| MFSGHQLKTARLSKGITQSELGRLLHVNKMTISNWEKGKNIPNEKHLNALLHLFNVTSDYFDPNYRLLTPYNQLTISNKEKVIGYSERLLNHQIDKKSKDLIDKPSQLYAYRVYESLSAGTGYSYFGDGNFDVVFYDEQLEYDFASWVFGDSMEPTYLNGEVVLIKQNSFDYDGAIYAVEWDGQTYIKKVFREDEGLRLVSLNKKYSDKFAPYSEEPRIIGKIIANFRPLEI | not soluble |
| MSLIPKFRAWDTYEKEMLENVTPLFDDSNSMIAIITDFQIKGSPGTSEIEIGSYDTTFNWDEFPYVIMQSTGLKDKNGVEIFEGDILVYDAPKKYAHRRSMHEIAYADGRFFWEFLDLVFCQSNILYRDGYLVIGNIHENPELLEGNEGHHHHHH | soluble |
| MGHHHHHHSHMACYIYQLPSWVLDDLCRNMDALSEWDWMEFASYVITDLTQLRKIKSMERVQGVSITRELLWWWGMRQATVQQLVDLLCRLELYRAAQIILNWKPAPEI | not soluble |
| MSTVVDQEGNNKQQTVAVIGAGIIGINCALELQSLGYQVTLLDKEGIGLGCSKANAGHFATEQVFPLAEFSLLWQMPKLLFDPLGPVALSAKHFIKAIPWFMQFFNNMRPTLRNKNKKALQALNKNAIHHYTALLKAAEAEHLISLDGSLLVFETNDRTKVELMYQHYLAAGIAVKLLDKRQTLELEPNLSNNINYSLYFTDVAHTIDPLALSKTLAEFAMCKGMTFQQTAVTSVTQTQSGVTVEIDEQHLHVDHCVIACGAWSKKLLNGLNYHLPIEAERGYSLSLPISAAASALLSRPVASAERRFIITPMGKTLRLAGTVEYAGLNAPANYKRAEMLKGNAAYILKRLPENEEKQEAWMGCRPSLPDSLPVICQAPNHDKIFFALGHQHLGLTQGAITGKLIGQLVTGHSPEINIDPFCIRRFNLEHHHHHH | not soluble |
| MAGDQELELRFDVPLYTLAEASRYLVVPRATLATWADGYERRPANAPAVQGQPIITALPHPTGSHARLPFVGIAEAYVLNAFRRAGVPMQRIRPSLDWLIKNVGPHALASQDLCTDGAEVLWRFAERSGEGSPDDLVVRGLIVPRSGQYVFKEIVEHYLQQISFADDNLASMIRLPQYGDANVVLDPRRGYGQPVFDGSGVRVADVLGPLRAGATFQAVADDYGVTPDQLRDALDAIAA | soluble |
| MKQLSFLPGEMTPQDRRLIQRALRALDRHLHEPGVAFTSTHAVREWLRLHMAALEREEFRVLYLDNQNQLIAHETLFTGTINRTEVHPREVVKRALHFNAAAVILAHNHPSGETTPSQADKTLTQRLVQVLQLVDIRVPDHLIVGGRQIYSFAEHGLL | not soluble |
| MGLKEKLIRKGKYIWELPKETIEGQRVPVILYLSDALFELLEEDALRQAANAATLPGVEKAIYVMPDVHVGYGFPVGGVMATNTETGIISPGSIGYDINCGVRLIATNLKAVDVAPRIKEIMNNMLKNVPAGVGSTSEIKLSKSQMKEVLVKGAGWAVEHGFGFPEDLQHIEGFGALPNADPEKASHEAYERGSDELGTVGSGNHFVEVQAVEQIYEPEIAEKLGIWEGQVMVMVHSGSRGFGHQVCTDYLRVALKVRDKYKIKLPDPQLACMPFNSPEGQAYFKAMNAAANYAFANRQILGFKAANTVRKTLGISWEEFGYRLIYDHAHNIGKVEKHEVDGKKVEVIVHRKGATRAFPPYNPEVPPAYREVGQPVIIPGDMGRASFLLVGQTNSMKMSFGTACHGAGRVMSRRQAKKYVKEVGLEKVIGNLVVVARGKGTIMEEIPQAYKDVTEVVRVIDELGIAKAVARLKPLGTLKG | soluble |
| MGSDKIHHHHHHMERIVDTADGRFDTRLTGTGNVTFILDHGMMSSHYQWGWLRGELLKQGRVFEYSRLGYGRSTRGKTKRLFTRQADELERVLALLDIKGPFVFIGHSLGAYISLELGRRRPDETAGIVLLDPSHPEVDAELPNWYERTQEEWNRFLYVLSHVRPLAWLIPDDLGARMFTSLPEADRIPMWRNMARKNHWRGTLDEWQAVEANNQHVLEVVEHIVPPVLVLSASDWAGGMPENWLNPELTKRINAAHERFAASLPDAAFHVIPNTNHYTIAGFSEEAATTIVSLIRNAFFK | not soluble |
| MTENFAQLFEESLKEIETRPGSIIRGTIVAVNKDNVIVDAGLKSESVISIDQFKNAAGEVEVVVGDEIDVALDATDDGFGETILSREKAKRHEAWQVLEKAYEEKETVIGVINGKVKGGFTVEVSDIRAFLPGSLVDVRPVRDTAHLEGKPLEFKVIKLDQKRNNVVVSRRAVIEAEGSAERDELLESLAEGQEVKGIVKNLTDYGAFVDLGGIDGLLHITDMAWKRVKHPSEIVNVGDEIQVKVLKFDRERTRVSLGMKQLGEDPWVAIANRYPEGSKLSGRVTNLTDYGCFVEIQEGVEGLVHVSEMDWTNKNIHPSKVVNLGDTVEVLVLEIDEERRRISLGLKQCIANPWEEFAKNFNKGDKVSGKIKSITDFGIFIGLDGGIDGLVHLSDISWAGGEEAVRDYKKGDEIDAIVLQVDPERERISLGVKQAEDDPFNMYLADKKKGAIVTGKVTEVDAKGATILLAESVEGYLRVSDISVERIEDASTVLKVGDDVEARFMGVDRKNRTISLSIKAKDQADEREAMDNLNQVEETGLSAMAAAFKNAKNLEHHHHHH | soluble |
| MIQKGLEGVKICESSICYLDGINGRLYYRGIPVEELAEKSTFEETAYFLWYGKLPTKSELEEFKRKMADYRELPAEALGILYHLPKNLHYIDVLKIFLSIHGSMDGNDEDLREKAIRVASVFPTILAYYYRYSKGKELIRPRKDLSHVENFYYMMFGERNEKIRLLESAFILLMEQDINASTFAALVIASTLSDLYSCIVGALGALKGPLHGGASEKVPPMLEEIGSEDRVEEFVQKCLKEKRKIMGFGHRVYKTYDPRAVFLKRVLQEHFPDSKLFRIASKLEEYIVSNKIKNIYPNVDLYSSVLFEELGFPRNMFTALFATARVVGWTAHVIEYVSDNKLIRPTSEYVGPMDVEYIPIERRDENG | soluble |
| MFLTKVSLLDHPESLPGYLSSLAIVEYLHEQPLEFRAPITVITGENGVGKSTLVEALAVGMRLNPSGGSRHANFGREGDIVSSLHQSLKLVRRENPRDAFFFRGETMYNVASYYEELMGEKNMHDLHKMSHGESVFAVIDRRFNNQGFFVLDEPEAGLSMLRQLELLGKLGNLARGGAQIIMATHSPILLAIPGAEILEITSSGVAKVNFEDAEAVRAAREFVADPRGTAAFLTAEEDHQ | soluble |
| MITTRLHGRLGNQMFQYAAARGLAARLGTQVALDTRLAESRGEGVLTRVFDLDLAQPDQLPPLKGDGLLRHGAWRLLGLAPRFRREHGLGYNAAIETWDDGTYLHGYWQSERYFAHIAARIRADFAFPAFSNSQNAEMAARIGDTDAISLHVRRGDYVALAAHTLCDQRYYAAALTRLLEGVAGDPVVYLFSDDPAWARDNLALPVQKVVVDFNGPETDFEDMRLMSLCRHNIIGNSSFSWWAAWLNAHPGKRIAAPASWFGDAKLHNPDLLPPDWLKIEVLEHHHHHH | not soluble |
